Source: the supplement of paper PMC12764529
± gives the half width of the 95% confidence interval.

Tests used:
[1] = folding stability dG unfold from trypsin proteolysis; higher = more stable
Method in brief: (§1)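 Designed mini-proteins (under 80 residues, no cysteine) in a PA-tagged cDNA display construct were digested with trypsin and chymotrypsin. Each protease was used at 11 concentrations (threefold dilutions) plus a no-protease condition, followed by sequencing. K50 was inferred by Bayesian fitting of sequencing counts, and unfolding free energy was derived against a sequence-predicted unfolded-state K50 and a shared folded-state K50, per protease or combined. Only designs with AlphaFold2 dimer inter-PAE above 15 were kept.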

[2] = folding stability dG unfold from chymotrypsin proteolysis; higher = more stable
Method in brief: as §1

[3] = folding stability dG unfold (combined trypsin and chymotrypsin); higher = more stable
Method in brief: as §1

## SAGGSAGGSAGMRPVTSVYYDPNTGRLYARFPDGVVANYELTPDGSVRLVSVAPAHPDLDSAGGSAGGSAGG [r17_61_TrMRF]
[1]
  folding stability dG unfold: 0.992 ± 0.04 kcal/mol
[2]
  folding stability dG unfold: 1.64 ± 0.059 kcal/mol
[3]
  folding stability dG unfold: 1.42 ± 0.066 kcal/mol

## SAGGMMTPVSEETLPDGSKVLVEENPATGERTVTTLNPATGTVTTETLKRVPGENAWTLLSKTTTPAPSAGG [r19_249_JUSTAS]
[1]
  folding stability dG unfold: 2.033 ± 0.018 kcal/mol
[2]
  folding stability dG unfold: 1.83 ± 0.02 kcal/mol
[3]
  folding stability dG unfold: 1.94 ± 0.041 kcal/mol

## SAGGSAGGMVTITEVSYDPKIGKTFTLVTVKDPEGKETLVEVPLEEIEKLIEEVPEGRPVEIAPSAGGSAGG [r6_113_JUSTAS]
[1]
  folding stability dG unfold: -0.0621 ± 0.054 kcal/mol
[2]
  folding stability dG unfold: -0.983 ± 0.64 kcal/mol
[3]
  folding stability dG unfold: -0.199 ± 0.19 kcal/mol

## SAGGMKEIAKALGIKPEDVKIEEEEIEVNGKKVKKIKITVKDKKTKKEYKIELTIVYDKNGKIVKIELSAGG [r13_358_TrROS_Hall]
[1]
  folding stability dG unfold: 3.61 ± 0.15 kcal/mol
[2]
  folding stability dG unfold: 4.72 ± 0.28 kcal/mol
[3]
  folding stability dG unfold: 4.63 ± 0.57 kcal/mol

## SAGSMSFELTVDYEKLPDGTYRVRATITIYDPNNNNPLKTVDFEGEATSEEEAEARARARAEEVKEAASAGG [r19_255_JUSTAS]
[1]
  folding stability dG unfold: 1.84 ± 0.078 kcal/mol
[2]
  folding stability dG unfold: 2.942 ± 0.023 kcal/mol
[3]
  folding stability dG unfold: 2.69 ± 0.17 kcal/mol

## SEEVEIEIRIRVEVDSLEEARALAEALEELGFEVEVKVVERDGKLVVEVTIRIRVPAPPPPPLSEEELKASA [r9_863_TrROS_Hall]
[1]
  folding stability dG unfold: 2.49 ± 0.11 kcal/mol
[2]
  folding stability dG unfold: 1.55 ± 0.14 kcal/mol
[3]
  folding stability dG unfold: 2.17 ± 0.19 kcal/mol

## SWYIIRIEIKIRNPKDGKSFDIEIMIHAPVEEAKEIAKEIASMFPGMRVEVKITEVMPMPPMTPEQLEKMSA [r9_421_TrROS]
[1]
  folding stability dG unfold: 2.23 ± 0.081 kcal/mol
[2]
  folding stability dG unfold: 3.721 ± 0.027 kcal/mol
[3]
  folding stability dG unfold: 3.25 ± 0.076 kcal/mol

## SAGGSAGGSAMPGKTYRVRIRLYNEETGELVEERELEVETLDELKEAAEKEGWKIVEIEVESAGGSAGGSAG [r3_423_TrROS_Hall]
[1]
  folding stability dG unfold: 3.14 ± 0.14 kcal/mol
[2]
  folding stability dG unfold: 3.49 ± 0.11 kcal/mol
[3]
  folding stability dG unfold: 3.36 ± 0.19 kcal/mol

## SAGGMAIKDVRVEGGVLYVYRGDKLVAKIEPGAAQPPVLVRFPDGTVVAVPRSVALALNPETLEFFDVSAGG [r13_802_TrMRF]
[1]
  folding stability dG unfold: 1.24 ± 0.032 kcal/mol
[2]
  folding stability dG unfold: 1.44 ± 0.087 kcal/mol
[3]
  folding stability dG unfold: 1.43 ± 0.043 kcal/mol

## SAKLTLEIEVNGKKYKAEITSVDEETGTVTIKVTFPDGSTQTLTLTFPPAPPPKVEKVYVVDKDGKLLKSAG [r14_466_TrROS_Hall]
[1]
  folding stability dG unfold: 0.644 ± 0.025 kcal/mol
[2]
  folding stability dG unfold: 1.83 ± 0.089 kcal/mol
[3]
  folding stability dG unfold: 1.45 ± 0.12 kcal/mol

## SAGGSETVRVEVEVELENGYRVRVEMEFDLETKEMTMRVEVEPVLELSPEELEKLKKLLEELGIEVSAGGSA [r2_304_TrROS_Hall]
[1]
  folding stability dG unfold: 2.91 ± 0.27 kcal/mol
[2]
  folding stability dG unfold: 3.43 ± 0.11 kcal/mol
[3]
  folding stability dG unfold: 3.12 ± 0.17 kcal/mol

## SMPEVRVEEVTIELEFTLPDGRTVRVEIRLTRVTLPDGRVFTRLEIKVEVPEEDEEARKLLKELLEELLSSA [r9_908_TrROS_Hall]
[1]
  folding stability dG unfold: 4.52 ± 0.14 kcal/mol
[2]
  folding stability dG unfold: 4.75 ± 0.13 kcal/mol
[3]
  folding stability dG unfold: 4.69 ± 0.12 kcal/mol

## SAYIQIERDPDGYIKIEVWFDSPDEGKEFVKEFVKELADQGLDIKIKVTKIEPYPGDPNMYRVSYTIKVSAG [r14_119_TrROS]
[1]
  folding stability dG unfold: 2.76 ± 0.098 kcal/mol
[2]
  folding stability dG unfold: 3.857 ± 0.038 kcal/mol
[3]
  folding stability dG unfold: 3.52 ± 0.083 kcal/mol

## SAGGSFGIEIEFHGNGFVIEMFNPETDTINTMRFKFDPDGQFTEMEMETIPIPPPPPPEKDENGKESAGGSA [r2_375_TrROS]
[1]
  folding stability dG unfold: 2.27 ± 0.16 kcal/mol
[2]
  folding stability dG unfold: 3.16 ± 0.12 kcal/mol
[3]
  folding stability dG unfold: 2.94 ± 0.19 kcal/mol

## SKPVLVKVKIVTKNKNGKKIEKELVIEMSEEDLEKLLEELLNDPNLKDVEKIEIEVVDAETGEVYTFTFPSA [r9_97_TrROS_Hall]
[1]
  folding stability dG unfold: 2.01 ± 0.19 kcal/mol
[2]
  folding stability dG unfold: 3.15 ± 0.062 kcal/mol
[3]
  folding stability dG unfold: 2.89 ± 0.14 kcal/mol

## SAGGDPDGKPKIEIKIKDINVEPDPDNGYYRATIKIRFPNGREINFDIPMPPGQTAEQVKEQAREMIQSAGG [r13_578_TrROS]
[1]
  folding stability dG unfold: 1.77 ± 0.025 kcal/mol
[2]
  folding stability dG unfold: 1.24 ± 0.095 kcal/mol
[3]
  folding stability dG unfold: 1.45 ± 0.17 kcal/mol

## SAGGDKLEDLPLEDVEVLRVEVIPLPDGGVLVVFEFKVSDEEGPERLVRVVVLVENDEARVFVEPLGSAGGS [r16_469_TrMRF]
[1]
  folding stability dG unfold: 2.05 ± 0.085 kcal/mol
[2]
  folding stability dG unfold: 3.2 ± 0.081 kcal/mol
[3]
  folding stability dG unfold: 2.91 ± 0.13 kcal/mol

## SAGGSAKIPVMFMIESPEQIIELVDEFAPPGHEVKVKIDNVEPFPMREDGEERPYYMFRVTIEFPPSAGGSA [r15_95_TrROS]
[1]
  folding stability dG unfold: 1.64 ± 0.07 kcal/mol
[2]
  folding stability dG unfold: 1.84 ± 0.16 kcal/mol
[3]
  folding stability dG unfold: 1.78 ± 0.14 kcal/mol

## SAGGSAKITIHMAPDGMFQIEIKTGGKERTYHVDMPLEQIKDELEDEGLEIKDIEITPFPPDPEDFSAGGSA [r15_576_TrROS]
[1]
  folding stability dG unfold: -1.13 ± 0.93 kcal/mol
[2]
  folding stability dG unfold: -0.146 ± 0.095 kcal/mol
[3]
  folding stability dG unfold: -0.409 ± 0.16 kcal/mol

## SAGGSAGGSAVYRTEDGRWVLVVEEVDGELTVHVYRRVDGRWELVETYPLEDLSPEARAALSAGGSAGGSAG [r3_241_TrROS_Hall]
[1]
  folding stability dG unfold: 1.48 ± 0.025 kcal/mol
[2]
  folding stability dG unfold: 2.33 ± 0.029 kcal/mol
[3]
  folding stability dG unfold: 2.03 ± 0.053 kcal/mol

## SAYRIEIEIPSPKLAKKLEALLPPNYRIDNVRRNKNDNQVKITVEYDPGMPPSRMRRIHKEIKELIKELSAG [r14_306_TrROS]
[1]
  folding stability dG unfold: 1.24 ± 0.088 kcal/mol
[2]
  folding stability dG unfold: 2.24 ± 0.077 kcal/mol
[3]
  folding stability dG unfold: 1.86 ± 0.18 kcal/mol

## SAGGSAPEIPTDALVRVRDPNSDKWYEATVLEARKLPGGELVYLIRLTKDGNEELVPTDLATVELKSAGGSA [r15_62_JUSTAS]
[1]
  folding stability dG unfold: 1.05 ± 0.08 kcal/mol
[2]
  folding stability dG unfold: 1.53 ± 0.12 kcal/mol
[3]
  folding stability dG unfold: 1.29 ± 0.098 kcal/mol

## SAGGSAKMTLIIKVSPEMTKEELEELARKLAEELNVKVEIEYDEETGLATVTIEKDGKKIEIIVERSAGGSA [r15_168_TrROS_Hall]
[1]
  folding stability dG unfold: 1.98 ± 0.083 kcal/mol
[2]
  folding stability dG unfold: 2.74 ± 0.094 kcal/mol
[3]
  folding stability dG unfold: 2.49 ± 0.12 kcal/mol

## SAGGSAGGSYTVETSPVPPGGLLKTYTSPDGVVTTTLYSPDGTVGETTTTPVPPVVPPDPAAAASAGGSAGG [r6_239_JUSTAS]
[1]
  folding stability dG unfold: -0.067 ± 0.075 kcal/mol
[2]
  folding stability dG unfold: 1.33 ± 0.053 kcal/mol
[3]
  folding stability dG unfold: 0.921 ± 0.11 kcal/mol

## SAMLPEGERKPFLVKVKIETPEGTPEFEAPVITEPPQKIHVSIDFDIPEGEHKIKIEFFGPKLEFEFDISAG [r14_280_TrMRF]
[1]
  folding stability dG unfold: 1.87 ± 0.11 kcal/mol
[2]
  folding stability dG unfold: 2.42 ± 0.12 kcal/mol
[3]
  folding stability dG unfold: 2.29 ± 0.44 kcal/mol

## SAGGSAMTTIVKTEPPTLDEEGNPYIRLTIKFPNGGTTTITLAPSELPQYLADLPPGFEVEEINPLSAGGSA [r15_339_JUSTAS]
[1]
  folding stability dG unfold: 2.41 ± 0.11 kcal/mol
[2]
  folding stability dG unfold: 2.69 ± 0.038 kcal/mol
[3]
  folding stability dG unfold: 2.65 ± 0.11 kcal/mol

## SAGGMPIKSKKEAEEFIKKGGAKYLSKTKVKVKGEEKEKEFEVYEFVFKDPKTNKPILVVVPKEYIGSAGGS [r16_271_TrMRF]
[1]
  folding stability dG unfold: -0.0462 ± 0.2 kcal/mol
[2]
  folding stability dG unfold: 1.27 ± 0.15 kcal/mol
[3]
  folding stability dG unfold: 0.886 ± 0.23 kcal/mol

## SAGGSAGRVRVELELEIVVDTPEEARALAEELARRFPSIVRVEVEVRRRPDGRLVVRVRLEVELPPSAGGSA [r15_726_TrROS_Hall]
[1]
  folding stability dG unfold: 3.3 ± 0.061 kcal/mol
[2]
  folding stability dG unfold: 3.32 ± 0.077 kcal/mol
[3]
  folding stability dG unfold: 3.31 ± 0.1 kcal/mol

## SAGMNTITFEYKTKDHYVKIDVQVYPPNEGYIRISIEIYNKDGEPKKEVKITIPAPPGDPAVRDFLDQFSAG [r5_964_TrROS]
[1]
  folding stability dG unfold: 2.77 ± 0.32 kcal/mol
[2]
  folding stability dG unfold: 2.74 ± 0.047 kcal/mol
[3]
  folding stability dG unfold: 2.73 ± 0.35 kcal/mol

## SAGGSAKITIEYDPETGTITIKVELTNEDNGKKVTKEYEIKVDGKLIRIKIDANTGEIVEIEVLPPSAGGSA [r2_331_TrROS_Hall]
[1]
  folding stability dG unfold: 3.52 ± 0.17 kcal/mol
[2]
  folding stability dG unfold: 3.38 ± 0.13 kcal/mol
[3]
  folding stability dG unfold: 3.55 ± 0.15 kcal/mol

## SAGGSAGGSAGGKDGYYKAIIELPGGEKREIVFKYEDFEEALKSLGIPLENVKIVKIEEGSAGGSAGGSAGG [r7_211_TrMRF]
[1]
  folding stability dG unfold: 3.3 ± 0.2 kcal/mol
[2]
  folding stability dG unfold: 3.49 ± 0.11 kcal/mol
[3]
  folding stability dG unfold: 3.48 ± 0.18 kcal/mol
